Experiment [1] has as its target preformed complex PARP2-QFRD_Alexa488 + Nuc165 (human) (UniProt Q9UGN5). The experiment can be described thus: FRET or BRET; Alexa647-labeled HPF1 (acceptor) titrated from 18.5 μM to 0 μM into 1 μM Alexa488-labeled PARP2 (donor) alone or into the preformed PARP2–Nuc165 complex (1 μM / 100 nM); 50 mM Tris-HCl pH 8, 50 mM NaCl, 1 mM MgCl2, 0.1 mM EDTA, 0.1 mM TCEP, 0.01% NP-40; Hill model.

Experiment [2] addresses preformed complex PARP2-WT_Alexa488 + Nuc165 (human) (UniProt Q9UGN5). Described as above.

Sequence of Alexa647-labeled HPF1 (Q9NWY4 whole entry): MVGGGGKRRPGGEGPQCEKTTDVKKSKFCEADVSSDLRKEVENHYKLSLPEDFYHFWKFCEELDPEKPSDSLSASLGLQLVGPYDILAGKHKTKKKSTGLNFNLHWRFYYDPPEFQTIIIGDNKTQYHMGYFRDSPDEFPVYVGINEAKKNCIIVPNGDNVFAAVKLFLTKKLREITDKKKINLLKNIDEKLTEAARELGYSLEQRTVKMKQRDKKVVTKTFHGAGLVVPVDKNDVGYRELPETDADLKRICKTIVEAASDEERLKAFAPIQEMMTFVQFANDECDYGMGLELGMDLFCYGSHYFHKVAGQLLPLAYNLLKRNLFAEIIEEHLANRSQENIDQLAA

What is called Kd is the equilibrium constant for the complex coming apart. As for “Alexa647-labeled HPF1 (from UniProt Q9NWY4 1-346) (natural protein)”, the Kd amounted to 0.702 µM in experiment [1] and 0.279 µM in experiment [2].
